B1: Human His-Gαi3 WT [human] / Fluorescein-labelled DAPLE peptide (residues 1,662–1,695) [modified: 5,6-carboxyfluorescein coupled to the resin-bound peptide after chain elongation; 5,6-carboxyfluorescein coupled to the … (parent)
chain 1: MGCTLSAEDKAAVERSKMIDRNLREDGEKAAKEVKLLLLGAGESGKSTIVKQMKIIHEDGYSEDECKQYKVVVYSNTIQSIIAIIRAMGRLKIDFGEAARADDARQLFVLAGSAEEGVMTPELAGVIKRLWRDGGVQACFSRSREYQLNDSASYYLNDLDRISQSNYIPTQQDVLRTRVKTTGIVETHFTFKDLYFKMFDVGGQRSERKKWIHCFEGVTAIIFCVALSDYDLVLAEDEEMNRMHESMKLFDSICNNKWFTETSIILFLNKKDLFEEKIKRSPLTICYPEYTGSNTYEEAAAYIQCQFEDLNRRKDTKEIYTHFTCATDTKNVQFVFDAVTDVIIKNNLKECGLY
chain 2: SASPSSEMVTLEEFLEESNRSSPTHDTPSCRDDL
B2: Human His-Gαi3 WT [human] / Fluorescein-labelled RGS12 GoLoco peptide (residues 1,185–1,221) [modified: 5,6-carboxyfluorescein coupled to the resin-bound peptide after chain elongation; 5,6-carboxyfluorescein coupled to the … (parent)
chain 1: B1 chain 1
chain 2: DEAEEFFELISKAQSNRADDQRGLLRKEDLVLPEFLR

Variants of: B1
Experiment: fluorescence polarisation
Settings: with Fluorescein-labelled DAPLE peptide (residues 1,662–1,695) [modified: 5,6-carboxyfluorescein coupled to the resin-bound peptide after chain elongation

Row | ratio to parent | Variant
1 | 2 | chain 1 MGCTLSAEDKAAVERSKMIDRNLREDGEKAAKEVKLLLLGAGESGKSTIVKQMKIIHEDGYSEDECKQYKVVVYSNTIQSIIAIIRAMGRLKIDFGEAARADDARQLFVLAGSAEEGVMTPELAGVIKRLWRDGGVQACFSRSREYQLNDSASYYLNDLDRISQSNYIPTQQDVLRTRVKTTGIVETHFTFKDLYFKMFDVGGQRSERKKWIHCFEGVTAIIFCVALSDYDLVLAEDEEMNRMHESMKLFDSICNNKWATETSIILFLNKKDLFEEKIKRSPLTICYPEYTGSNTYEEAAAYIQCQFEDLNRRKDTKEIYTHFTCATDTKNVQFVFDAVTDVIIKNNLKECGLY [chain 1 F259A]

Variants of: B2
Experiment: fluorescence polarisation
Settings: with Fluorescein-labelled RGS12 GoLoco peptide (residues 1,185–1,221) [modified: 5,6-carboxyfluorescein coupled to the resin-bound peptide after chain elongation

Row | Variant | ratio to parent | Kd [nM]
2 | chain 1 MGCTLSAEDKAAVERSKMIDRNLREDGEKAAKEVKLLLLGAGESGKSTIVKQMKIIHEDGYSEDECKQYKVVVYSNTIQSIIAIIRAMGRLKIDFGEAARADDARQLFVLAGSAEEGVMTPELAGVIKRLWRDGGVQACFSRSREYQLNDSASYYLNDLDRISQSNYIPTQQDVLRTRVKTTGIVETHFTFKDLYFKMFDVGGQRSERKKWIHCFEGVTAIIFCVALSDYDLVLAEDEEMNRMHESMKLFDSICNNAWFTETSIILFLNKKDLFEEKIKRSPLTICYPEYTGSNTYEEAAAYIQCQFEDLNRRKDTKEIYTHFTCATDTKNVQFVFDAVTDVIIKNNLKECGLY [chain 1 K257A] | 1.58 | –
3 | chain 1 MGCTLSAEDKAAVERSKMIDRNLREDGEKAAKEVKLLLLGAGESGKSTIVKQMKIIHEDGYSEDECKQYKVVVYSNTIQSIIAIIRAMGRLKIDFGEAARADDARQLFVLAGSAEEGVMTPELAGVIKRLWRDGGVQACFSRSREYQLNDSASYYLNDLDRISQSNYIPTQQDVLRTRVKTTGAVETHFTFKDLYFKMFDVGGQRSERKKWIHCFEGVTAIIFCVALSDYDLVLAEDEEMNRMHESMKLFDSICNNKWFTETSIILFLNKKDLFEEKIKRSPLTICYPEYTGSNTYEEAAAYIQCQFEDLNRRKDTKEIYTHFTCATDTKNVQFVFDAVTDVIIKNNLKECGLY [chain 1 I184A] | 1.53 | –
4 | chain 1 MGCTLSAEDKAAVERSKMIDRNLREDGEKAAKEVKLLLLGARESGKSTIVKQMKIIHEDGYSEDECKQYKVVVYSNTIQSIIAIIRAMGRLKIDFGEAARADDARQLFVLAGSAEEGVMTPELAGVIKRLWRDGGVQACFSRSREYQLNDSASYYLNDLDRISQSNYIPTQQDVLRTRVKTTGIVETHFTFKDLYFKMFDVGGQRSERKKWIHCFEGVTAIIFCVALSDYDLVLAEDEEMNRMHESMKLFDSICNNKWFTETSIILFLNKKDLFEEKIKRSPLTICYPEYTGSNTYEEAAAYIQCQFEDLNRRKDTKEIYTHFTCATDTKNVQFVFDAVTDVIIKNNLKECGLY [chain 1 G42R] | 1.81 | 98
5 | chain 1 MGCTLSAEDKAAVERSKMIDRNLREDGEKAAKEVKLLLLGAGESGKSTIVKQMKIIHEDGYSEDECKQYKVVVYSNTIQSIIAIIRAMGRLKIDFGEAARADDARQLFVLAGSAEEGVMTPELAGVIKRLWRDGGVQACFSRSREYQLNDSASYYLNDLDRISQSNYIPTQQDVLRTRVKTTGIVETHFTFKDLYFKMFDVGGQRSERKKWIHCAEGVTAIIFCVALSDYDLVLAEDEEMNRMHESMKLFDSICNNKWFTETSIILFLNKKDLFEEKIKRSPLTICYPEYTGSNTYEEAAAYIQCQFEDLNRRKDTKEIYTHFTCATDTKNVQFVFDAVTDVIIKNNLKECGLY [chain 1 F215A] | 10.1 | –

More lines, now with the values ahead:

Row | ratio to parent | Kd [nM] | Variant
6 | 2.18 | – | chain 1 MGCTLSAEDKAAVERSKMIDRNLREDGEKAAKEVKALLLGAGESGKSTIVKQMKIIHEDGYSEDECKQYKVVVYSNTIQSIIAIIRAMGRLKIDFGEAARADDARQLFVLAGSAEEGVMTPELAGVIKRLWRDGGVQACFSRSREYQLNDSASYYLNDLDRISQSNYIPTQQDVLRTRVKTTGIVETHFTFKDLYFKMFDVGGQRSERKKWIHCFEGVTAIIFCVALSDYDLVLAEDEEMNRMHESMKLFDSICNNKWFTETSIILFLNKKDLFEEKIKRSPLTICYPEYTGSNTYEEAAAYIQCQFEDLNRRKDTKEIYTHFTCATDTKNVQFVFDAVTDVIIKNNLKECGLY [chain 1 L36A]
7 | 1.54 | – | chain 1 MGCTLSAEDKAAVERSKMIDRNLREDGEKAAKEVKLLLLGAGESGKSTIVKQMKIIHEDGYSEDECKQYKVVVYSNTIQSIIAIIRAMGRLKIDFGEAARADDARQLFVLAGSAEEGVMTPELAGVIKRLWRDGGVQACFSRSREYQLNDSASYYLNDLDRISQSNYIPTQQDVLRTRVKTTGIVETHFTFKDLYFKMFDVGGQRSERKKWIHCFEGVTAIIFCVALSDYDLVLAEDEEMNRMHESMKVFDSICNNKWFTETSIILFLNKKDLFEEKIKRSPLTICYPEYTGSNTYEEAAAYIQCQFEDLNRRKDTKEIYTHFTCATDTKNVQFVFDAVTDVIIKNNLKECGLY [chain 1 L249V]
8 | 4.89 | – | chain 1 MGCTLSAEDKAAVERSKMIDRNLREDGEKAAKEVKLLLLGAGESGKSTIVKQMKIIHEDGYSEDECKQYKVVVYSNTIQSIIAIIRAMGRLKIDFGEAARADDARQLFVLAGSAEEGVMTPELAGVIKRLWRDGGVQACFSRSREYQLNDSASYYLNDLDRISQSNYIPTQQDVLRTRVKTTGIVETHFTFKDLYFKMFDVGGQRSERKKWIHCFEGVTAIIFCVALSDYDLVLAEDEEMNRMHESMKHFDSICNNKWFTETSIILFLNKKDLFEEKIKRSPLTICYPEYTGSNTYEEAAAYIQCQFEDLNRRKDTKEIYTHFTCATDTKNVQFVFDAVTDVIIKNNLKECGLY [chain 1 L249H]
